For data set [1], the system named is rituximab antibody producing strain. Kind of data set: Treatment of T. reesei rituximab cultures with inhibitors. It is filed as cell-based, Trichoderma reesei. How it is done: The effectiveness of the inhibitors was also tested with the rituximab antibody producing strain, which contains a VALEKR linker sequence and the pep1 deletion. This strain was grown in triplicate, in small flasks both in presence or absence of chymostatin, SBTI, or pepstatin A. The small shake flasks contained 50 ml of TrMM plus lactose (40 g/l), spent grain extract (20 g/l), and buffer with 100 mM PIPPS at pH 5.5. The SBTI inhibitor was added to the culture at final concentrations of either 100 μg/ml or 500 μg/ml. Chymostatin was used at 100 μM, and pepstatin A was used at 10 μM. Each of the three inhibitors was added to the cultures daily on day 2, 3, 4, and 5.
Growth of the cultures was followed daily by pH from day 2 until day 7. […] In the PIPPS buffered cultures, the pH decreased from an initial pH of 5.5 down to a pH of 4.8 after day 6. With chymostatin and pepstatin A the cultures were monitored up to day 7. On day 7 the average pH for the control bottles was 4.6, while the average pH for chymostatin treated cultures was 4.9, and the average pH of pepstatin A treated cultures was 5.0.
Culture supernatant samples (30 μl) were also collected on days 3, 4, and 5 for analysis of antibody production. The analysis was performed by immunoblots using an anti-IgG heavy chain antibody AP conjugate (Sigma #A3188) and an anti-light chain antibody AP conjugate (Sigma #A3812). Each antibody was diluted 1:30,000 in TBST. The full length rituximab heavy chain is about 51 kD, the rituximab light chain CHBI fusion is about 100 kD, and the free rituximab light chain is about 28 kD.

Data set [2] deals with SIP purified proteases (PEP2, PEP3, PEP4, PEP5, GAP1, SLP2). Kind of data set: Protease activity of SIP purified fractions against casein with inhibitors (EnzChek). The settings on record: pH 5.5. It is filed as biochemical, Trichoderma reesei. As to the method:
Protease activity was then tested against casein both in the presence and absence of protease inhibitors. Protease activity against casein was tested using the EnzChek protease assay kit (Molecular probes #E6638, green fluorescent casein substrate). The working stock solution was prepared by diluting the stock to 10 μg ml in 50 mM sodium citrate, pH 5.5. The purified protease fractions (10 μl) were diluted with […] of sodium citrate, pH 5.5. 100 μl of the diluted substrate was combined with the diluted protease fractions in a 96 well sample plate. The plate was then covered and kept at 37° C. for one to three hours. Fluorescence readings were taken at one, two, and three hours with a Varioskan fluorescent plate reader (Thermo Scientific) using 485 nm excitation and 530 nm emission.
The SIP inhibitor peptide, pepstatin A, LIP peptide, SBTI, and chymostatin were used as inhibitors. […] SIP, LIP, and pepstatin A were used at a concentration of 60 μM, and SBTI was used at a concentration of 200 μg/ml.

The subject of data set [3] is M369 human growth hormone strain. Kind of data set: hGH production in 24 well cultures with inhibitors and supplements. It counts as cell-based, Trichoderma reesei. Conditions: 24 well culture, pH 4.5, day 4 immunoblot. How it is done: To evaluate what inhibitors would best stabilize production of hGH, 24 well cultures of these strains were performed. The M369 human growth hormone strain (Δpep1Δtsp1Δslp1Δgap1Δgap2) was grown along with single components or with combinations of the following: trypsin and subtilisin inhibitor SBTI, the acidic protease inhibitor peptide SIP, the acidic protease inhibitor peptide LIP, the aspartic protease inhibitor pepstatin A free peptide, pepstatin A immobilized to agarose beads, the trypsin and subtilisin inhibitor BBI from lima bean, the […] chymostatin, and BSA. Three independent wells were chosen for control wells where no inhibitors or supplements were added. These two strains were grown in 3 ml of TrMM with diammonium citrate without ammonium sulfate, 100 mM PIPPS, 20 g/L spent grain extract, 40 g/L lactose adjusted to pH 4.5. The 24 well plates were shaken at 800 rpm, 85% humidity, and 28° C. The cultures were grown for 6 days and covered with an air permeable membrane.
Inhibitors were added first on day 1 and then daily beginning on day 3. 100 μl samples were taken from the culture wells beginning on day 3. The mycelium was spun down for 5 minutes at 13 k and the supernatant collected. […]
(In general: In western blotting, separated proteins are transferred to a membrane and probed.)

B1: SBTI: soybean trypsin inhibitor, trypsin and subtilisin inhibitor (protein)
chain: DFVLDNEGNPLENGGTYYILSDITAFGGIRAAPTGNERCPLTVVQSRNELDKGIGTIISSPYRIRFIAEGHPLSLKFDSFAVIMLCVGIPTEWSVVEDLPEGPAVKIGENKDAMDGWFRLERVSDDEFNNYKLVFCPQQAEDDKCGDIGISIDHDDGTRRLVVSKNKPLVVQFQKLDKESL
For B1, in data set [1], the “effect on culture growth (followed by pH)” value is recorded as “no significant differences in the pH”. For the same molecule, the “rituximab light chain production vs untreated cultures” value in data set [1] (SBTI 100 or 500 μg/ml) is recorded as “minor improvement”. For the same molecule, the “rituximab heavy chain production vs untreated cultures” value in data set [1] (day 5, SBTI 100 or 500 μg/ml, chymostatin 100 μM) is on record as “several fold higher”. Also, the proteases inhibited result in data set [2] (SIP, LIP, pepstatin A 60 μM, SBTI 200 μg/ml) was “able to inhibit SLP2 and PEP4”. Further, the “inhibition of SIP purified protease activity against casein” value in data set [2] (FIG. 11) was “able to inhibit the SLP2 protease”. The “effect on hGH production” value in data set [3] is given as “improved production”.
